Source: patent publication US9540428B2, “Extracellular matrix heparin-binding domains” (EPFL-TTO, priority 2012, dated 2017)

Key:
HUVEC cells = experiment: HUVEC proliferation with cytokines with or without fibrinogen or Fg β15-66; type: cell-based, human; settings: 72 hours; ≧100-fold molar excess; VEGF-A165, PlGF-2, FGF-2
Description: To verify that cytokines bound to Fg β15-66 are still bioactive, the proliferation of HUVEC cells was tested for different cytokines with and without the presence of Fg β15-66. Method: HUVEC cells were stimulated with various cytokines: VEGF-A165, PlGF-2, and FGF-2 with or without fibrinogen or Fg β15-66 in excess (≧100-fold molar excess).

FGF-18 = molecular target: T1, FGF-18 (Homo sapiens, UniProt O76093); experiment: ELISA binding to coated FGF-18; settings: 50 nM cytokine coated
T1 sequence (O76093 28-207): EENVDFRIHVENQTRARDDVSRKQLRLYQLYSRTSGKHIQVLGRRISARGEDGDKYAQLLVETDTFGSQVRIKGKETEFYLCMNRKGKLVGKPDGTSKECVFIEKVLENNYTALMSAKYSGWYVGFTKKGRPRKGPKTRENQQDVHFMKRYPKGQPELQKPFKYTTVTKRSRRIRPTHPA
Description: ELISA plates were coated with cytokines or BSA and further incubated with TNC III1-5 to analyze binding of TNC III1-5 to a wide variety of cytokines. […] Results are depicted in FIG. 3. Method: 50 nM of cytokine was coated for (1 hr, 37° C.). After blocking with 2% BSA (1 hr, RT). 100 nM TNC III1-5 was applied in PBST (0.05% tween, 0.1% bovine serum albumin (BSA)) (1 hr, RT). TNC III1-5 was detected with horseradish peroxidase (HRP)-anti-HIS in PBST (1 hr, RT) and developed with 3,3′,5,5′-tetramethylbenzidine (TMB), a soluble colorimetric HRP […]. Addition of sulfuric acid stop solution changes the color to yellow, enabling accurate measurement of the intensity at 450 nm using a spectrophotometer or plate reader. […] Heparin (4 μM) was added to TNC III1-5 to test the effect of blocking the heparin binding site of TNC III1-5, which has been defined as domain TNC III5 (Weber, Zimmermann, et al., 1995).

B1: Fg β15-66: heparin-binding domain of human fibrinogen β chain aa15-66 (SEQ ID NO:8); construct with TG substrate and His tag, SEQ ID NO:2 (protein)
chain: GSNQEQVSPLGHRPLDKKREEAPSLRPAPPPISGGGYRARPAKAAATQKKVERKAPDAGGCGHHHHHH
modifications: GS linker, transglutaminase substrate, the Fg beta15-66, with a Histidine tag
- synergistic effect on HUVEC proliferation, cytokines plus protein vs cytokines alone (HUVEC cells): no synergistic effect

B2: TNC III1-5: recombinant tenascin C fibronectin type III repeats 1-5 (E622 to A1074) with transglutaminase substrate NQEQVSPL and 6×His tag, SEQ ID NO:1 (protein)
chain: METDTLLLWVLLLWVPGSTGDAAQPAIEGRNQEQVSPLGGSEVSPPKDLVVTEVTEETVNLAWDNEMRVTEYLVVYTPTHEGGLEMQFRVPGDQTSTIIQELEPGVEYFIRVFAILENKKSIPVSARVATYLPAPEGLKFKSIKETSVEVEWDPLDIAFETWEIIFRNMNKEDEGEITKSLRRPETSYRQTGLAPGQEYEISLHIVKNNTRGPGLKRVTTTRLDAPSQIEVKDVTDTTALITWFKPLAEIDGIELTYGIKDVPGDRTTIDLTEDENQYSIGNLKPDTEYEVSLISRRGDMSSNPAKETFTTGLDAPRNLRRVSQTDNSITLEWRNGKAAIDSYRIKYAPISGGDHAEVDVPKSQQATTKTTLTGLRPGTEYGIGVSAVKEDKESNPATINAATELDTPKDLQVSETAETSLTLLWKTPLAKFDRYRLNYSLPTGQWVGVQLPRNTTSYVLRGLEPGQEYNVLLTAEKGRHKSKPARVKASTEQAGGGSHHHHHH
modifications: Tenascin III signal sequence with polyhistidine tag
- binding to FGF-18 (ELISA, signal above BSA background) (FGF-18): positive binding
